B1: Azurin, P00282 (parent)
chain: MLRKLAAVSLLSLLSAPLLAAECSVDIQGNDQMQFNTNAITVDKSCKQFTVNLSHPGNLPKNVMGHNWVLSTAADMQGVVTDGMASGLDKDYLKPDDSRVIAHTKLIGSGEKDSVTFDVSKLKEGEQYMFFCTFPGHSALMKGTLTLK

Variants of: B1
Details: Pseudomonas aeruginosa (strain ATCC 15692 / DSM 22644 / CIP 104116 / JCM 14847 / LMG 12228 / 1C / PRS 101 / PAO1); pH 7; 25 °C; GdnHCl; Fluorescence, CD; Tris-HCl 100 mM; reversible: Yes; structure 5AZU; whole UniProt chain shown

| Variant | ddG of mutation (higher = less stable) | denaturant m value | unfolding free energy |
| --- | --- | --- | --- |
| V25A | 0.96 kcal/mol | 4.06 kcal/mol/M | 11.9 kcal/mol |
| I27A | 3.35 kcal/mol | 4.3 kcal/mol/M | 9.56 kcal/mol |
| I40A | 2.39 kcal/mol | 4.54 kcal/mol/M | 10.5 kcal/mol |
| V42A | 1.67 kcal/mol | 4.54 kcal/mol/M | 11.2 kcal/mol |
| V51A | 1.67 kcal/mol | 4.54 kcal/mol/M | 11.2 kcal/mol |
| L53A | 1.67 kcal/mol | 4.78 kcal/mol/M | 11.2 kcal/mol |
| W68A | 3.35 kcal/mol | 4.78 kcal/mol/M | 9.56 kcal/mol |
| L70A | 1.79 kcal/mol | 4.42 kcal/mol/M | 11.1 kcal/mol |
| V80G | 3.11 kcal/mol | 4.18 kcal/mol/M | 9.8 kcal/mol |
| I101A | 1.43 kcal/mol | 4.78 kcal/mol/M | 11.5 kcal/mol |
| A102G | 1.67 kcal/mol | 4.3 kcal/mol/M | 11.2 kcal/mol |
| V115A | 0.96 kcal/mol | 4.3 kcal/mol/M | 11.9 kcal/mol |
| Y128A | 3.59 kcal/mol | 4.42 kcal/mol/M | 9.32 kcal/mol |
| M141A | 2.87 kcal/mol | 4.18 kcal/mol/M | 10 kcal/mol |
| L145A | 1.67 kcal/mol | 4.54 kcal/mol/M | 11.2 kcal/mol |

Reference: FireProtDB (doi:10.1021/bi050342n)
